B1: Chondroitin sulfate N-acetylgalactosaminyltransferase 2 (Homo sapiens), Q8N6G5 (parent)
chain: MPRRGLILHTRTHWLLLGLALLCSLVLFMYLLECAPQTDGNASLPGVVGENYGKEYYQALLQEQEEHYQTRATSLKRQIAQLKQELQEMSEKMRSLQERRNVGANGIGYQSNKEQAPSDLLEFLHSQIDKAEVSIGAKLPSEYGVIPFESFTLMKVFQLEMGLTRHPEEKPVRKDKRDELVEVIEAGLEVINNPDEDDEQEDEEGPLGEKLIFNENDFVEGYYRTERDKGTQYELFFKKADLTEYRHVTLFRPFGPLMKVKSEMIDITRSIINIIVPLAERTEAFVQFMQNFRDVCIHQDKKIHLTVVYFGKEGLSKVKSILESVTSESNFHNYTLVSLNEEFNRGRGLNVGARAWDKGEVLMFFCDVDIYFSAEFLNSCRLNAEPGKKVFYPVVFSLYNPAIVYANQEVPPPVEQQLVHKKDSGFWRDFGFGMTCQYRSDFLTIGGFDMEVKGWGGEDVHLYRKYLHGDLIVIRTPVPGLFHLWHEKRCADELTPEQYRMCIQSKAMNEASHSHLGMLVFREEIETHLHKQAYRTNSEAVG
partner: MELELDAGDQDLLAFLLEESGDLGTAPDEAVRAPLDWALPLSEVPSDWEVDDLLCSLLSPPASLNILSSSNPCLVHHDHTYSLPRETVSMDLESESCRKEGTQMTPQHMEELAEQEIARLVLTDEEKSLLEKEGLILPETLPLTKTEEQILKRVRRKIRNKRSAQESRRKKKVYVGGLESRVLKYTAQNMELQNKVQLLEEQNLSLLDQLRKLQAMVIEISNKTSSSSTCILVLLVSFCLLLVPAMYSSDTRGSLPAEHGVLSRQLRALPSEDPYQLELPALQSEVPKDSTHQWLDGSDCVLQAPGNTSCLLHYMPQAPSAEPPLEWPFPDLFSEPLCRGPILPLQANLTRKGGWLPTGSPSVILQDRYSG
B2: Syntaxin-3 (Homo sapiens), Q13277 (parent)
chain: MKDRLEQLKAKQLTQDDDTDAVEIAIDNTAFMDEFFSEIEETRLNIDKISEHVEEAKKLYSIILSAPIPEPKTKDDLEQLTTEIKKRANNVRNKLKSMEKHIEEDEVRSSADLRIRKSQHSVLSRKFVEVMTKYNEAQVDFRERSKGRIQRQLEITGKKTTDEELEEMLESGNPAIFTSGIIDSQISKQALSEIEGRHKDIVRLESSIKELHDMFMDIAMLVENQGEMLDNIELNVMHTVDHVEKARDETKKAVKYQSQARKKLIIIIVLVVVLLGILALIIGLSVGLN
B3: Pleckstrin homology domain-containing family G member 6 (Homo sapiens), Q3KR16 (parent)
chain: MKAFGPPHEGPLQGLVASRIETYGGRHRASAQSTAGRLYPRGYPVLDPSRRRLQQYVPFARGSGQARGLSPMRLRDPEPEKRHGGHVGAGLLHSPKLKELTKAHELEVRLHTFSMFGMPRLPPEDRRHWEIGEGGDSGLTIEKSWRELVPGHKEMSQELCHQQEALWELLTTELIYVRKLKIMTDLLAAGLLNLQRVGLLMEVSAETLFGNVPSLIRTHRSFWDEVLGPTLEETRASGQPLDPIGLQSGFLTFGQRFHPYVQYCLRVKQTMAYAREQQETNPLFHAFVQWCEKHKRSGRQMLCDLLIKPHQRITKYPLLLHAVLKRSPEARAQEALNAMIEAVESFLRHINGQVRQGEEQESLAAAAQRIGPYEVLEPPSDEVEKNLRPFSTLDLTSPMLGVASEHTRQLLLEGPVRVKEGREGKLDVYLFLFSDVLLVTKPQRKADKAKVIRPPLMLEKLVCQPLRDPNSFLLIHLTEFQCVSSALLVHCPSPTDRAQWLEKTQQAQAALQKLKAEEYVQQKRELLTLYRDQDRESPSTRPSTPSLEGSQSSAEGRTPEFSTIIPHLVVTEDTDEDAPLVPDDTSDSGYGTLIPGTPTGSRSPLSRLRQRALRRDPRLTFSTLELRDIPLRPHPPDPQAPQRRSAPELPEGILKGGSLPQEDPPTWSEEEDGASERGNVVVETLHRARLRGQLPSSPTHADSAGESPWESSGEEEEEGPLFLKAGHTSLRPMRAEDMLREIREELASQRIEGAEEPRDSRPRKLTRAQLQRMRGPHIIQLDTPLSASEV
partner: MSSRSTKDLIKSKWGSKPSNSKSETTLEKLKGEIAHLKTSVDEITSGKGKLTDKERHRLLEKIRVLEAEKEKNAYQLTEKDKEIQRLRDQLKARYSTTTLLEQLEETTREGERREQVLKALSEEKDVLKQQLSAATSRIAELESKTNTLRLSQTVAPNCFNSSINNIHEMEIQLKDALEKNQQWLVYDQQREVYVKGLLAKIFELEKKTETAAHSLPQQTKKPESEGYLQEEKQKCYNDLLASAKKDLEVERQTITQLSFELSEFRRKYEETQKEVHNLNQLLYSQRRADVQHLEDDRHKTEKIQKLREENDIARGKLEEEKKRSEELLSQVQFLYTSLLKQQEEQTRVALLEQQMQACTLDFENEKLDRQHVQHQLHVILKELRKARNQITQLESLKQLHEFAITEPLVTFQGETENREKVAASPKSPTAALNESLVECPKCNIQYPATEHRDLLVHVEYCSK
B4: Proteasome subunit beta type-1 (Homo sapiens), P20618 (parent)
chain: MLSSTAMYSAPGRDLGMEPHRAAGPLQLRFSPYVFNGGTILAIAGEDFAIVASDTRLSEGFSIHTRDSPKCYKLTDKTVIGCSGFHGDCLTLTKIIEARLKMYKHSNNKAMTTGAIAAMLSTILYSRRFFPYYVYNIIGGLDEEGKGAVYSFDPVGSYQRDSFKAGGSASAMLQPLLDNQVGFKNMQNVEHVPLSLDRAMRLVKDVFISAAERDVYTGDALRICIVTKEGIREETVSLRKD
B5: Tuftelin-interacting protein 11 (Homo sapiens), Q9UBB9 (parent)
chain: MSLSHLYRDGEGRIDDDDDERENFEITDWDLQNEFNPNRQRHWQTKEEATYGVWAERDSDDERPSFGGKRARDYSAPVNFISAGLKKGAAEEAELEDSDDEEKPVKQDDFPKDFGPRKLKTGGNFKPSQKGFAGGTKSFMDFGSWERHTKGIGQKLLQKMGYVPGRGLGKNAQGIINPIEAKQRKGKGAVGAYGSERTTQSMQDFPVVDSEEEAEEEFQKELSQWRKDPSGSKKKPKYSYKTVEELKAKGRISKKLTAPQKELSQVKVIDMTGREQKVYYSYSQISHKHNVPDDGLPLQSQQLPQSGKEAKAPGFALPELEHNLQLLIDLTEQEIIQNDRQLQYERDMVVNLFHELEKMTEVLDHEERVISNLSKVLEMVEECERRMQPDCSNPLTLDECARIFETLQDKYYEEYRMSDRVDLAVAIVYPLMKEYFKEWDPLKDCTYGTEIISKWKSLLENDQLLSHGGQDLSADAFHRLIWEVWMPFVRNIVTQWQPRNCDPMVDFLDSWVHIIPVWILDNILDQLIFPKLQKEVENWNPLTDTVPIHSWIHPWLPLMQARLEPLYSPIRSKLSSALQKWHPSDSSAKLILQPWKDVFTPGSWEAFMVKNIVPKLGMCLGELVINPHQQHMDAFYWVIDWEGMISVSSLVGLLEKHFFPKWLQVLCSWLSNSPNYEEITKWYLGWKSMFSDQVLAHPSVKDKFNEALDIMNRAVSSNVGAYMQPGARENIAYLTHTERRKDFQYEAMQERREAENMAQRGIGVAASSVPMNFKDLIETKAEEHNIVFMPVIGKRHEGKQLYTFGRIVIYIDRGVVFVQGEKTWVPTSLQSLIDMAK
partner: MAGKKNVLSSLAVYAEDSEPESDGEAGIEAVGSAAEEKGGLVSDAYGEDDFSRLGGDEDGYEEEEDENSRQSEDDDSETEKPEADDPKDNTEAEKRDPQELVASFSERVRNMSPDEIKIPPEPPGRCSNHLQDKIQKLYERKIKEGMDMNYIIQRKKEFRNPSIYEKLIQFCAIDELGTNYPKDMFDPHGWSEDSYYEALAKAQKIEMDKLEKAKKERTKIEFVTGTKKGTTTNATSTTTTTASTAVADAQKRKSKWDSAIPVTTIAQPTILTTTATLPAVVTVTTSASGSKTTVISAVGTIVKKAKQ
B6: Protein LDOC1 (Homo sapiens), O95751 (parent)
chain: MVDELVLLLHALLMRHRALSIENSQLMEQLRLLVCERASLLRQVRPPSCPVPFPETFNGESSRLPEFIVQTASYMLVNENRFCNDAMKVAFLISLLTGEAEEWVVPYIEMDSPILGDYRAFLDEMKQCFGWDDDEDDDDEEEEDDY
partner: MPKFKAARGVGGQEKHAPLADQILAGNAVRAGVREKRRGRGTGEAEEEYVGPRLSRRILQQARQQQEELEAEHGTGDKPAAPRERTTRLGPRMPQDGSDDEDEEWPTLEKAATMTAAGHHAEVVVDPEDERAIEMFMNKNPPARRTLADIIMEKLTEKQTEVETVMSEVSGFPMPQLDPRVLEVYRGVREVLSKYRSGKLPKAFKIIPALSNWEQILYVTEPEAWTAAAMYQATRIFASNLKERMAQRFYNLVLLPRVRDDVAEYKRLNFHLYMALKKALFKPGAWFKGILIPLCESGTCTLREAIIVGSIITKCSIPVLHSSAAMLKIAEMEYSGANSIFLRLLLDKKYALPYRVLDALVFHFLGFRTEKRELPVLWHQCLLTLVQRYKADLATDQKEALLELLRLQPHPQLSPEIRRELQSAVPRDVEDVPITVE
B7: Tetraspanin-2 (Homo sapiens), O60636 (parent)
chain: MGRFRGGLRCIKYLLLGFNLLFWLAGSAVIAFGLWFRFGGAIKELSSEDKSPEYFYVGLYVLVGAGALMMAVGFFGCCGAMRESQCVLGSFFTCLLVIFAAEVTTGVFAFIGKGVAIRHVQTMYEEAYNDYLKDRGKGNGTLITFHSTFQCCGKESSEQVQPTCPKELLGHKNCIDEIETIISVKLQLIGIVGIGIAGLTIFGMIFSMVLCCAIRNSRDVI
partner: B1 partner

Variants of B1 are the subject of the first test. The following applies: with creb3_human CREB3, O43889.
On to P479S, for which the “effect of a mutation on the interaction” value was “with no effect”.

In another test the parent is B2. As to conditions: with stx4_human STX4, Q12846.
Sequence of stx4_human STX4, Q12846 (Q12846 whole entry): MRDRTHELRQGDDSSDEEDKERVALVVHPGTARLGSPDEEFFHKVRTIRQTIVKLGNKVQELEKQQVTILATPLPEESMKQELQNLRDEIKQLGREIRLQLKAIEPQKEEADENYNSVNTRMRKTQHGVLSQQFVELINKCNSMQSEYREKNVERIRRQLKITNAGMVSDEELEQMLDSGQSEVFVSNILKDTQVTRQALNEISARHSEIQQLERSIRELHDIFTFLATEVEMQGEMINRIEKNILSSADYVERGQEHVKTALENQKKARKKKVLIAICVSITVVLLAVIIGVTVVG
Consider G276S, for which the “effect of a mutation on the interaction” value was “with no effect”. On the same count and under the same terms, to H198Y belongs “disrupting interaction strength”.

Variants of B3 are the subject of a further test. The following applies: with cep55_human CEP55, Q53EZ4.
In the case of R763Q, the “effect of a mutation on the interaction” value is listed as “with no effect”. P542S: the “effect of a mutation on the interaction” value was “with no effect”. Turning to R627W, the “effect of a mutation on the interaction” value is “with no effect”.

In a further test the parent is B4. As to conditions: with KRT15, P19012.
Sequence of KRT15, P19012 (P19012 whole entry): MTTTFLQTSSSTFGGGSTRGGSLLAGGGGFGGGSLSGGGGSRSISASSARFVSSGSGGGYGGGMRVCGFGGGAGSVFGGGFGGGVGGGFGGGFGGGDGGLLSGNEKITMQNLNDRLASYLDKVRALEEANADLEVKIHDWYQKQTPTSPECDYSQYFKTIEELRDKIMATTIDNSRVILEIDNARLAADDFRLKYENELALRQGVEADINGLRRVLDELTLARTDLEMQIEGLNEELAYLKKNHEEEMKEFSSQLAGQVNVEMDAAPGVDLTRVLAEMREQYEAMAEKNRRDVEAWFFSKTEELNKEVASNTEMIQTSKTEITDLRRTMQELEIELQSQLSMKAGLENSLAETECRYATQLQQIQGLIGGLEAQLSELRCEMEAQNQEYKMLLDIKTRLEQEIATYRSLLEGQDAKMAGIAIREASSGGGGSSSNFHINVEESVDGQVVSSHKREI
As to P11A, the “effect of a mutation on the interaction” value is “with no effect”.

A further test covers variants of B4. The following applies: with traf1_human TRAF1, Q13077.
Sequence of traf1_human TRAF1, Q13077 (Q13077 whole entry): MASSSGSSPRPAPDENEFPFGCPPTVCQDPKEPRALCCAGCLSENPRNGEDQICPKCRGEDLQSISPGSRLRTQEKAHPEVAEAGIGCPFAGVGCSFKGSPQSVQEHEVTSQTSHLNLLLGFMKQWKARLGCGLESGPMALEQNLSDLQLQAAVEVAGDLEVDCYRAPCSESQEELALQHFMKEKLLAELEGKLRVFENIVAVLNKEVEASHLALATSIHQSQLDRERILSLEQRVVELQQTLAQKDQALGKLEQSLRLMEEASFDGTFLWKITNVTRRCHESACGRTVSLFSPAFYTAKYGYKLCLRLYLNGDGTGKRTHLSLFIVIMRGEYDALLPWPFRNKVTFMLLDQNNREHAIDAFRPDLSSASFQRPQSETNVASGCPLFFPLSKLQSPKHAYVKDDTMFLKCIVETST
As for P11A, the “effect of a mutation on the interaction” value is on record as “with no effect”.

Variants of B5 are the subject of another test. As to conditions: with SAP30BP.
Consider R8Q, for which the “effect of a mutation on the interaction” value is “with no effect”. With S688L, the “effect of a mutation on the interaction” value is given as “with no effect”.

A further test covers variants of B6. As to conditions: with byst_human BYSL.
In the case of L12H, the “effect of a mutation on the interaction” value is “disrupting interaction strength”.

The next test covers variants of B7. The following applies: with creb3_human CREB3, O43889.
Take R118L: the “effect of a mutation on the interaction” value is “with no effect”.

(Values after IntAct's records for PubMed 31515488.)
